Data published in PMC8748815, “The N-terminal tail of the hydrophobin SC16 is not required for rodlet formation” (Scientific Reports, 2022).

B1: SC16 with the N-terminal signal sequence removed (18Thr-114Leu of the hyd1 gene of S. commune) (natural protein, Schizophyllum commune, UniProt D8QCG9 18-114, looked up)
chain: TAVPRDVNGGTPPKSCSSGPVYCCNKTEDHLDKGTTALLGLLNIKIGDLKDLVGLNCSPLSVIGVGGNSCSAQTVCCTNTYQHGLVNVGCTPINIGL
notes: Expressed as H6-GB1-SC16 with a thrombin site; also called hydrophobin SC16; not shown: His6, N-terminal, cleaved; B1 domain of protein G (GB1), N-terminal, cleaved
B2: SC16 with 13 residues from the N-terminal tail removed (residues 31Lys-114Leu of SC16) (domain or fragment, Schizophyllum commune, UniProt D8QCG9 31-114, looked up)
chain: KSCSSGPVYCCNKTEDHLDKGTTALLGLLNIKIGDLKDLVGLNCSPLSVIGVGGNSCSAQTVCCTNTYQHGLVNVGCTPINIGL
notes: class IB hydrophobin SC16, product of the hyd1 gene of Schizophyllum commune, NCBI ID EFI94929, residues 31Lys-114Leu; Expressed as H6-GB1-SC16ΔN with a thrombin site; also called SC16ΔN; not shown: His6, N-terminal, cleaved; B1 domain of protein G (GB1), N-terminal, cleaved

Target: the molecule itself
Assay: thioflavin T fluorescence; self-assembly during agitation (air:water interface), 50 μg/mL protein, 20 μM ThT, multicomponent buffer pH 8.5 with 1 M NaCl (SC16ΔN also at pH 5.5-8.5 with 10 mM-1 M NaCl), 6 replicates

| Protein | binding result |
| --- | --- |
| B1 | binds |
| B2 | binds |
